This is an account of results in US20210063414A1, “METHODS FOR PREVENTING AND/OR TREATING BONE LOSS CONDITIONS BY MODULATING IRISIN” (Dana-Farber Cancer Institute, Inc., priority 2018, published 2021).

Test [1] deals with T1, MLO-Y4 cell surface proteins (Mus musculus, UniProt B1AVY7).
T1 construct: endogenous in cells; host or cells: MLO-Y4
T1 sequence (B1AVY7 1-1312): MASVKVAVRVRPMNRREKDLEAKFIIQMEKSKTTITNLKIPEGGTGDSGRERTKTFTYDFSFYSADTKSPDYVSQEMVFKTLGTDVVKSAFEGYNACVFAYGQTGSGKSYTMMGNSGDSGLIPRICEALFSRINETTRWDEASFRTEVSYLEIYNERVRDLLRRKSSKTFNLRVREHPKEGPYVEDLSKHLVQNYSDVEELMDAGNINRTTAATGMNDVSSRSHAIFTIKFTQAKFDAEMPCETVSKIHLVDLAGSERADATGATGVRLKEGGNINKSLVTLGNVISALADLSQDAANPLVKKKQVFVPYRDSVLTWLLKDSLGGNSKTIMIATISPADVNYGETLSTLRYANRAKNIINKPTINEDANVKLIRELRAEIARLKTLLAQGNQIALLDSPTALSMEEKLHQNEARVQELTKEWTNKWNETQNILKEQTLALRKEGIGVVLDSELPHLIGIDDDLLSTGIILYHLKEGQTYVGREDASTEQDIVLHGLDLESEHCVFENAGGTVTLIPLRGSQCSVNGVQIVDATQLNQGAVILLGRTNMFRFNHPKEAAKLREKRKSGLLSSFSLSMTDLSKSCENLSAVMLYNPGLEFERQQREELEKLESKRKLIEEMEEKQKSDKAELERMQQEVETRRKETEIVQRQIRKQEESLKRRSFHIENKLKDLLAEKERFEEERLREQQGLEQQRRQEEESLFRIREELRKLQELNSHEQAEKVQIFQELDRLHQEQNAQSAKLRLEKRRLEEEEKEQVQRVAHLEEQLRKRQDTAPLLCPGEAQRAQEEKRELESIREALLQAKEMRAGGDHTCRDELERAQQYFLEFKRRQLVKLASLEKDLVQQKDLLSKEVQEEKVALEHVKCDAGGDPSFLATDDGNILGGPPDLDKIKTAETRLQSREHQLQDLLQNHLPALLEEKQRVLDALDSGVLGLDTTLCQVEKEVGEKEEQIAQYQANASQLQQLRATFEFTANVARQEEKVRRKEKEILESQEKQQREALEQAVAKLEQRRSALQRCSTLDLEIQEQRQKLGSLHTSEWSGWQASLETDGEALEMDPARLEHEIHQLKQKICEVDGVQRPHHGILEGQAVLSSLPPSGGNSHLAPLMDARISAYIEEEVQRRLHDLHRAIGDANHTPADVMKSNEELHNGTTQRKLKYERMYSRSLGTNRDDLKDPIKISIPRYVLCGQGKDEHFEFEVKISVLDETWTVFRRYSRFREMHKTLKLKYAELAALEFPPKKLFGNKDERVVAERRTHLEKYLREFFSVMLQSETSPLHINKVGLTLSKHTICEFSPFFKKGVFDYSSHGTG
The test can be described thus: Crosslinking/co-immunoprecipitation/mass spectrometry (TMT quantitative proteomics) to identify irisin receptors. The conditions noted are these: co-precipitated protein Kif16b (KI16B_MOUSE). The class given is binding. Summed up: (§1)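 Mouse MLO-Y4 cells were switched to serum-free FreeStyle medium for 4 h, chilled, then exposed to 10 nM His-tagged irisin (or adipsin as control) for 20 min. Cells were crosslinked with 1.5 mM DTSSP (30 min, ice), and bound proteins were pulled down on Ni-NTA and eluted with 250 mM imidazole. Eluates were separated by SDS-PAGE, trypsin-digested in gel, TMT 6-plex labelled and quantified by MS3-based LC-MS/MS on an Orbitrap Fusion Lumos.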

Test [2] concerns the target T2, MLO-Y4 cell surface proteins (Mus musculus, UniProt Q9JHS4).
T2 construct: endogenous in cells; host or cells: MLO-Y4
The description is as above. The conditions noted are these: co-precipitated protein Clpx (CLPX_MOUSE). The class given is binding. The procedure, abridged:
as §1

T2 sequence (Q9JHS4 57-634): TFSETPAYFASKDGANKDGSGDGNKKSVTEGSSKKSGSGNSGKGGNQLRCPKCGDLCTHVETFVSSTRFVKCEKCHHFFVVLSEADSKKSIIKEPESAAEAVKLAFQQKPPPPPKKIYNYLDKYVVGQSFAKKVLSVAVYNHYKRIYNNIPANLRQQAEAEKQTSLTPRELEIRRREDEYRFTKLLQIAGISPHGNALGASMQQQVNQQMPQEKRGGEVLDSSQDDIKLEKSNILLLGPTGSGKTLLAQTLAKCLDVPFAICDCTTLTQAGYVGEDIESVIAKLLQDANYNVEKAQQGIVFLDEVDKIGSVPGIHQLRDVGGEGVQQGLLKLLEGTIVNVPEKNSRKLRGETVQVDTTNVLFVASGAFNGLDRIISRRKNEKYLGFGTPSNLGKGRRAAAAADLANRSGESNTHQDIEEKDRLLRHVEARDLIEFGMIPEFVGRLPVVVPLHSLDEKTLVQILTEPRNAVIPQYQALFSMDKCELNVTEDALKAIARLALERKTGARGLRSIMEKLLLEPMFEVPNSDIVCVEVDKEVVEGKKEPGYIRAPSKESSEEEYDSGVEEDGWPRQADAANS

B1: irisin: secreted cleaved form of FNDC5; recombinant human/mouse irisin with C-terminal his tag produced in HEK293 cells (protein)
chain: DSPSAPVNVTVRHLKANSAVVSWDVLEDEVVIGFAISQQKKDVRMLRFIQEVNTTTRSCALWDLEEDTEYIVHVQAISIQGQSPASEPVLFKTPREAEKMASKNKDEVTMKE
modifications: left off: small tags and cut ends
notes: secreted cleaved form of FNDC5; recombinant human/mouse irisin with C-terminal his tag produced in HEK293 cells
As to B1, in test [1], the TMT signal-to-noise ratio is recorded as 528.649 and the “irisin/adipsin TMT signal-to-noise ratio” value is given as 0.473. In test [2], the TMT signal-to-noise ratio worked out at 851.066 and the “irisin/adipsin TMT signal-to-noise ratio” value is listed as 0.561.
